Source: PMC8991199 (2022)

B1: S100A5 (natural protein)
chain: METPLEKALTTMVTTFHKYSGREGSKLTLSRKELKELIKKELCLGEMKESSIDDLMKSLDKNSDQEIDFKEYSVFLTMLCMAYNDFFLEDNK

Tests used:
[1] = biological target: fIF, fluorescently labelled H14 foldamer IF (β-peptidic hexamer: β3-amino acids with proteinogenic side chains (I, F) in positions 2 and 5, ACHC (trans-2-aminocyclohexancarboxylic acid) residues; 5(6)-carboxyfluorescein on the ε-amino group of …); assay: FP
[2] = biological target: fWL, fluorescently labelled H14 foldamer WL (β-peptidic hexamer: β3-amino acids with proteinogenic side chains (W, L) in positions 2 and 5, ACHC (trans-2-aminocyclohexancarboxylic acid) residues; 5(6)-carboxyfluorescein on the ε-amino group of …); assay: FP
S100A5 [3] = biological target: B1; assay: FP; competition against fWL
S100A5 [4] = biological target: B1; assay: FP; competition against fIF

Kd [1]	Kd [2]	Kd (S100A5 [3])	Kd (S100A5 [4])	Binder
32 µM	7.9 µM	–	–	B1
–	–	4.9 µM	2.4 µM	TRTKIDWNKILS [TRTK12 peptide]
